Assay results taken from publication PMC6346709.
Substitutions are numbered along the chain they refer to. Numbers in names are those of the source.

B1: CEACAM1-3-Fc (containing N-A1-B1 domains) V96A (protein)
chain: QLTTESMPFNVAEGKEVLLLVHNLPQQLFGYSWYKGERVDGNRQIVGYAIGTQQATPGPANSGRETIYPNASLLIQNVTQNDTGFYTLQVIKSDLANEEATGQFHVYPELPKPSISSNNSNPVEDKDAVAFTCEPETQDTTYLWWINNQSLPVSPRLQLSNGNRTLTLLSVTRNDTGPYECEIQNPVSANRSDPVTLNVTYGPDTPTISPSDTYYRPGANLSLSCYAASNPPAQYSWLINGTFQQSTQELFIPNITVNNSGSYTCHANNSVTGCNRTTVKTIIVTGK
B2: CEACAM1-3-Fc (containing N-A1-B1 domains) Q89N (protein)
chain: B1 chain with Q89N, A96V
B3: CEACAM1-Fc, comprising all extracellular CEACAM1 domains fused to the human immunoglobulin G (IgG) Fc domain, P13688 I91A (protein)
chain: QLTTESMPFNVAEGKEVLLLVHNLPQQLFGYSWYKGERVDGNRQIVGYAIGTQQATPGPANSGRETIYPNASLLIQNVTQNDTGFYTLQVAKSDLVNEEATGQFHVYPELPKPSISSNNSNPVEDKDAVAFTCEPETQDTTYLWWINNQSLPVSPRLQLSNGNRTLTLLSVTRNDTGPYECEIQNPVSANRSDPVTLNVTYGPDTPTISPSDTYYRPGANLSLSCYAASNPPAQYSWLINGTFQQSTQELFIPNITVNNSGSYTCHANNSVTGCNRTTVKTIIVTELSPVVAKPQIKASKTTVTGDKDSVNLTCSTNDTGISIRWFFKNQSLPSSERMKLSQGNTTLSINPVKREDAGTYWCEVFNPISKNQSDPIMLNVNYNALPQENGLSPG

Tests used:
[1] = target: Recombinant CbpF from Fn ATCC 25586 (group I), passenger domain (Fusobacterium nucleatum ATCC 25586) (UniProt Q8RIS0); assay: ELISA; purified CbpFI and CbpFII (3 pmol) immobilised on plates; 1 pmol of each CEACAM-Fc variant; anti-human secondary antibody
[2] = target: Recombinant CbpF from clinical strain 2B3 (group II), passenger domain, pOPINE construct; assay: ELISA; conditions: 3 pmol CbpF; 15 fmol CEACAM1-3-Fc mutant; developed for 5 hrs at 37°C; parent: est. 0.66; read off a plot
[3] = target: Recombinant CbpF from Fn ATCC 25586 (group I), passenger domain (UniProt Q8RIS0); assay: ELISA; conditions: 3 pmol CbpF; 15 fmol CEACAM1-3-Fc mutant; developed for 5 hrs at 37°C; parent: est. 0.43; read off a plot
[4] = target: CEACAM binding protein of Fusobacterium (CbpF) of F. nucleatum ATCC 25586, FN1499 (Fusobacterium nucleatum ATCC 25586 (endogenous)); assay: migration on SDS-PAGE and Western blot; native CbpF in lysate or co-precipitate runs at ~150 kDa against ~50 kDa predicted for the mature chain; Fn lysate gives a ~50 kDa band after 70% formic acid
[5] = target: CEACAM binding protein of Fusobacterium (CbpF) of F. vincentii ATCC 49256, FNV1729 (Fusobacterium vincentii ATCC 49256 (endogenous)); assay: as above
[6] = target: T1, Recombinant CbpF from Fn ATCC 25586 (group I), passenger domain, Q8RIS0; assay: ELISA; conditions: chain shown with the change; 3 pmol CbpF; 15 fmol CEACAM1-3-Fc mutant; developed for 5 hrs at 37°C; parent: est. 0.43; read off a plot
T1 chain: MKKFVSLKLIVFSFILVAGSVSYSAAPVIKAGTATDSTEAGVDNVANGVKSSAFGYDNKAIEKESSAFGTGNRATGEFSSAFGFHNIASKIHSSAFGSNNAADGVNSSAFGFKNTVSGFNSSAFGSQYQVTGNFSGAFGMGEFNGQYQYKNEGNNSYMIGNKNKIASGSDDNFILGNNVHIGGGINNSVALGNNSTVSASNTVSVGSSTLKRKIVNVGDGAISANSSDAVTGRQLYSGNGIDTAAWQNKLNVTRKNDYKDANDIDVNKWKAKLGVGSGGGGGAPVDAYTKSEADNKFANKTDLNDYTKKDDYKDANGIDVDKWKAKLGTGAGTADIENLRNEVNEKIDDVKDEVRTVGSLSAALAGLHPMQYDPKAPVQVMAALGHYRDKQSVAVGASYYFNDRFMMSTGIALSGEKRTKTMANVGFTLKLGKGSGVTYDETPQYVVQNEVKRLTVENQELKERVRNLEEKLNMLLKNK

[7] = target: Recombinant CbpF from clinical isolate 2B3 (protein of Figure 8, dot blot and Figure S9); assay: ELISA; conditions: chain shown with the change; read at 2 µg.ml-1 of the Fc construct (highest point of the titration); recombinant CbpF immobilised; parent: est. 1.9; read off a plot

| Molecule | response [2] [A405] | response [3] [A405] | also measured |
| --- | --- | --- | --- |
| CEA-Fc (from UniProt P06731 35-685) (Fc fusion) |  |  | binding relative to group II CbpF [1]: 50% |
| CEACAM1-3-Fc (containing N-A1-B1 domains) F29G | 0.012 | 0.012 |  |
| CEACAM1-3-Fc (containing N-A1-B1 domains) F29I | 0.017 | 0.012 |  |
| CEACAM1-3-Fc (containing N-A1-B1 domains) F29R | 0.013 | 0.013 |  |
| CEACAM1-3-Fc (containing N-A1-B1 domains) F29Y | 0.082 | 0.017 |  |
| CEACAM1-3-Fc (containing N-A1-B1 domains) G47L | 0.008 | 0.007 |  |
| CEACAM1-3-Fc (containing N-A1-B1 domains) I91A | 0.01 | 0.02 |  |
| CEACAM1-3-Fc (containing N-A1-B1 domains) I91G | 0.017 | 0.066 |  |
| CEACAM1-3-Fc (containing N-A1-B1 domains) I91L | 0.006 | 0.022 |  |
| CEACAM1-3-Fc (containing N-A1-B1 domains) Q44E | 0.017 | 0.02 |  |
| CEACAM1-3-Fc (containing N-A1-B1 domains) Q44L | 0.021 | 0.027 |  |
| CEACAM1-3-Fc (containing N-A1-B1 domains) Q44R | 0.013 | 0.02 |  |
| CEACAM1-3-Fc (containing N-A1-B1 domains) Q89N | 0.17 |  |  |
| CEACAM1-3-Fc (containing N-A1-B1 domains) V96A | 0.87 |  |  |
| CEACAM1-3-Fc (containing N-A1-B1 domains) Y34A | 0.043 | 0.021 |  |
| CEACAM1-3-Fc (containing N-A1-B1 domains) Y34F | 0.013 | 0.017 |  |
| CEACAM1-3-Fc (containing N-A1-B1 domains) Y34S | 0.012 | 0.017 |  |
| CEACAM1-Fc, comprising all extracellular CEACAM1 domains fused to the human immunoglobulin G (IgG) Fc domain (from UniProt P13688 35-428) (Fc fusion) |  |  | binding relative to group II CbpF [1]: 75% |
| CEACAM binding protein of Fusobacterium (CbpF) of F. nucleatum ATCC 25586, FN1499 (natural protein) |  |  | stoichiometry N [4]: 3 |
| CEACAM binding protein of Fusobacterium (CbpF) of F. vincentii ATCC 49256, FNV1729 (natural protein) |  |  | stoichiometry N [5]: 3 |
| B1 |  |  | response [6]: 0.4 A405 |
| B2 |  |  | response [6]: 0.024 A405 |
| B3 |  |  | response [7]: 0 A405 |
